Data as given in patent US20250320281A1.

B1: PGT-125 (5123_A06) (antibody, V domains shown)
VH: QSQLQESGPRLVEASETLSLTCNVSGESTGACTYFWGWVRQAPGKGLEWIGSLSHCQSFWGSGWTFHNPSLKSRLTISLDTPKNQVFLKLTSLTAADTATYYCARFDGEVLVYNHWPKPAWVDLWGRGIPVTVSS
VL: QSALTQPPSASGSPGQSITISCNGTATNFVSWYQQFPDKAPKLIIFGVDKRPPGVPDRFSGSRSGTTASLTVSRLQTDDEAVYYCGSLVGNWDVIFGGGTTLTVL
B2: 5366_P21 (PGT-136) (antibody, V domains shown)
VH: QLQLQESGPGLVKPSETLSLTCTVSGGSMRGTDWGENDFHYGWIRQSSAKGLEWIGSIHWRGRTTHYKTSFRSRATLSIDTSNNRFSLTFSFVTAADTAVYYCARHKYHDIFRVVPVAGWFDPWGQGLLVTVSS
VL: EIVMTQSPPTLSVSPGETATLSCRASQNVKNNLAWYQLKPGQAPRLLIFDASSRAGGIPDRFSGSGYGTDFTLTVNSVQSEDFGDYFCQQYEEWPRTFGQGTKVDIK
B3: 5344_E16 (PGT-135) (antibody, V domains shown)
VH: QLQMQESGPGLVKPSETLSLSCTVSGDSIRGGEWGDKDYHWGWVRHSAGKGLEWIGSIHWRGTTHYKESLRRRVSMSIDTSRNWFSLRLASVTAADTAVYFCARHRHHDVFMLVPIAGWFDVWGPGVQVTVSS
VL: EIVMTQSPDTLSVSPGETVTLSCRASQNINKNLAWYQYKPGQSPRLVIFETYSKIAAFPARFVASGSGTEFTLTINNMQSEDVAVYYCQQYEEWPRTFGQGTKVDIK
B4: PGT-126 (5141_B17) (antibody, V domains shown)
VH: QPQLQESGPGLVEASETLSLTCTVSGDSTAACDYFWGWVRQPPGKGLEWIGGLSHCAGYYNTGWTYHNPSLKSRLTISLDTPKNQVFLKLNSVTAADTAIYYCARFDGEVLVYHDWPKPAWVDLWGRGTLVTVSS
VL: QSALTQPPSASGSPGQSISISCTGTSNRFVSWYQQHPGKAPKLVIYGVNKRPSGVPDRFSGSKSGNTASLTVSGLQTDDEAVYYCSSLVGNWDVIFGGGTKLTVL
B5: PGT-127 (5145_B14) (antibody, V domains shown)
VH: QPQLQESGPGLVEASETLSLTCTVSGDSTGRCNYFWGWVRQPPGKGLEWIGSLSHCRSYYNTDWTYHNPSLKSRLTISLDTPKNQVFLRLTSVTAADTATYYCARFGGEVLVYRDWPKPAWVDLWGRGTLVVTVS
VL: QSALTQPPSASGSPGQSITISCTGTSNNFVSWYQQYPGKAPKLVIYEVNKRPSGVPDRFSGSKSGSTASLTVSGLQADDEGVYYCSSLVGNWDVIFGGGTKLTVL
B6: 4869_K15 (PGT-133) (antibody, V domains shown)
VH: QVHLQESGPGLVTPSETLSLTCTVSNGSVSGRFWSWIRQSPGRGLEWIGYFSDTDRSEYNPSLRSRLTLSVDRSKNQLSLRLKSVTAADSATYYCARAQQGKRIYGIVSFGEFFYYYYMDAWGKGTPVTVSS
VL: SLNPLSLAPGATAKIPCGERSRGSRAVQWYQQKPGQAPTLIIYNNQDRPAGVSERFSGNPDVAIGVTATLTISRVEVGDEADYYCHYWDSRSPISWIFGGGTQLTVL

Experiments:
Assay in all cases: cell-based or functional assay
[1] = target: HIV-1 Env of isolate 93UG077 (pseudovirus) (HIV-1)
[2] = target: HIV-1 Env of isolate MGRM-A-011 (pseudovirus) (HIV-1)
[3] = target: HIV-1 Env of isolate 92RW008 (pseudovirus) (HIV-1)
[4] = target: HIV-1 Env of isolate MGRM-A-009 (pseudovirus) (HIV-1)
[5] = target: HIV-1 Env of isolate MGRM-A-006 (pseudovirus) (HIV-1)
[6] = target: HIV-1 Env of isolate 92WR024 (pseudovirus) (HIV-1)
[7] = target: HIV-1 Env of isolate CMU02 (pseudovirus) (HIV-1)
[8] = target: HIV-1 Env of isolate MGRM-AE-001 (pseudovirus) (HIV-1)
[9] = target: HIV-1 Env of isolate MGRM-A-014 (pseudovirus) (HIV-1)
[10] = target: HIV-1 Env of isolate MGRM-A-012 (pseudovirus) (HIV-1)
[11] = target: HIV-1 Env of isolate 92UG031 (pseudovirus) (HIV-1)
[12] = target: HIV-1 Env of isolate MGRM-A-007 (pseudovirus) (HIV-1)
[13] = target: HIV-1 Env of isolate MGRM-A-001 (pseudovirus) (HIV-1)
[14] = target: HIV-1 Env of isolate MGRM-A-005 (pseudovirus) (HIV-1)
[15] = target: HIV-1 Env of isolate MGRM-A-010 (pseudovirus) (HIV-1)
[16] = target: HIV-1 Env of isolate 92WR020 (pseudovirus) (HIV-1)
[17] = target: HIV-1 Env of isolate 94UG103 (pseudovirus) (HIV-1)
[18] = target: HIV-1 Env of isolate 92UG037 (pseudovirus) (HIV-1)
[19] = target: HIV-1 Env of isolate MGRM-A-008 (pseudovirus) (HIV-1)
[20] = target: HIV-1 Env of isolate VLGCA1 (pseudovirus) (HIV-1)
[21] = target: HIV-1 Env of isolate 92WR026 (pseudovirus) (HIV-1)
[22] = target: HIV-1 Env of isolate MGRM-A-002 (pseudovirus) (HIV-1)
[23] = target: HIV-1 Env of isolate 94KE105 (pseudovirus) (HIV-1)
[24] = target: HIV-1 Env of isolate 92TH021 (pseudovirus) (HIV-1)
[25] = target: HIV-1 Env of isolate MGRM-A-013 (pseudovirus) (HIV-1)
[26] = target: HIV-1 Env of isolate 92WR009 (pseudovirus) (HIV-1)
[27] = target: HIV-1 Env of isolate MGRM-AE-002 (pseudovirus) (HIV-1)
[28] = target: HIV-1 Env of isolate MGRM-A-003 (pseudovirus) (HIV-1)
[29] = target: HIV-1 Env of isolate 93WR029 (pseudovirus) (HIV-1)
[30] = target: HIV-1 Env of isolate MGRM-AE-003 (pseudovirus) (HIV-1)
[31] = target: HIV-1 Env of isolate 92WR021 (pseudovirus) (HIV-1)
[32] = target: HIV-1 Env of isolate MGRM-A-004 (pseudovirus) (HIV-1)
[33] = target: HIV-1 Env of isolate 93IN905 (pseudovirus) (HIV-1)
[34] = target: HIV-1 Env of isolate JR-CSF (pseudovirus) (HIV-1) (UniProt P20871)
[35] = target: HIV-1 Env of isolate MGRM-C-026 (pseudovirus) (HIV-1)
[36] = target: HIV-1 Env of isolate 92BR020 (pseudovirus) (HIV-1)

Binder	IC50 (µg/mL), pseudovirus neutralization [1]	IC50 (µg/mL), pseudovirus neutralization [2]	IC50 (µg/mL), pseudovirus neutralization [3]	IC50 (µg/mL), pseudovirus neutralization [4]	IC50 (µg/mL), pseudovirus neutralization [5]	IC50 (µg/mL), pseudovirus neutralization [6]	IC50 (µg/mL), pseudovirus neutralization [7]	IC50 (µg/mL), pseudovirus neutralization [8]	IC50 (µg/mL), pseudovirus neutralization [9]	IC50 (µg/mL), pseudovirus neutralization [10]	IC50 (µg/mL), pseudovirus neutralization [11]	IC50 (µg/mL), pseudovirus neutralization [12]	IC50 (µg/mL), pseudovirus neutralization [13]	IC50 (µg/mL), pseudovirus neutralization [14]	IC50 (µg/mL), pseudovirus neutralization [15]	IC50 (µg/mL), pseudovirus neutralization [16]	IC50 (µg/mL), pseudovirus neutralization [17]	IC50 (µg/mL), pseudovirus neutralization [18]	IC50 (µg/mL), pseudovirus neutralization [19]	IC50 (µg/mL), pseudovirus neutralization [20]	also measured
B1	0.012 µg/mL	> 50 µg/mL	0.004 µg/mL	0.009 µg/mL	> 50 µg/mL	35.5 µg/mL	> 50 µg/mL	2.95 µg/mL	13.9 µg/mL	0.177 µg/mL	> 50 µg/mL	> 50 µg/mL	12.4 µg/mL	> 50 µg/mL	0.004 µg/mL	0.004 µg/mL	0.008 µg/mL	0.005 µg/mL	> 50 µg/mL	0.078 µg/mL	IC50 (µg/mL), pseudovirus neutralization [21]: 0.007 µg/mL; IC50 (µg/mL), pseudovirus neutralization [22]: 0.013 µg/mL; IC50 (µg/mL), pseudovirus neutralization [23]: 0.004 µg/mL; IC50 (µg/mL), pseudovirus neutralization [24]: 0.006 µg/mL; IC50 (µg/mL), pseudovirus neutralization [25]: 0.014 µg/mL; IC50 (µg/mL), pseudovirus neutralization [26]: 0.144 µg/mL; IC50 (µg/mL), pseudovirus neutralization [27]: > 50 µg/mL; IC50 (µg/mL), pseudovirus neutralization [28]: > 50 µg/mL; IC50 (µg/mL), pseudovirus neutralization [29]: > 50 µg/mL; IC50 (µg/mL), pseudovirus neutralization [30]: 0.092 µg/mL; IC50 (µg/mL), pseudovirus neutralization [31]: 0.005 µg/mL; IC50 (µg/mL), pseudovirus neutralization [32]: > 50 µg/mL
B2	–	–	–	–	–	–	–	–	–	–	–	–	–	–	–	–	–	–	–	–	Primary Neutralization Index (B cell culture supernatant) [33]: 5.5; Primary Neutralization Index (B cell culture supernatant) [34]: 1.1; Primary Neutralization Index (B cell culture supernatant) [35]: 6.2
B3	–	–	–	–	–	–	–	–	–	–	–	–	–	–	–	–	–	–	–	–	Primary Neutralization Index (B cell culture supernatant) [33]: 2.3; Primary Neutralization Index (B cell culture supernatant) [34]: 1.5; Primary Neutralization Index (B cell culture supernatant) [35]: 3.6
B4	0.02 µg/mL	> 50 µg/mL	0.008 µg/mL	0.004 µg/mL	> 50 µg/mL	42 µg/mL	> 50 µg/mL	9.68 µg/mL	0.01 µg/mL	0.097 µg/mL	> 50 µg/mL	> 50 µg/mL	> 50 µg/mL	> 50 µg/mL	0.002 µg/mL	0.006 µg/mL	0.008 µg/mL	0.011 µg/mL	> 50 µg/mL	> 50 µg/mL	IC50 (µg/mL), pseudovirus neutralization [21]: 0.008 µg/mL; IC50 (µg/mL), pseudovirus neutralization [22]: 0.015 µg/mL; IC50 (µg/mL), pseudovirus neutralization [23]: 0.006 µg/mL; IC50 (µg/mL), pseudovirus neutralization [24]: 0.197 µg/mL; IC50 (µg/mL), pseudovirus neutralization [25]: 0.006 µg/mL; IC50 (µg/mL), pseudovirus neutralization [26]: > 50 µg/mL; IC50 (µg/mL), pseudovirus neutralization [27]: > 50 µg/mL; IC50 (µg/mL), pseudovirus neutralization [28]: > 50 µg/mL; IC50 (µg/mL), pseudovirus neutralization [29]: > 50 µg/mL; IC50 (µg/mL), pseudovirus neutralization [30]: > 50 µg/mL; IC50 (µg/mL), pseudovirus neutralization [31]: 0.006 µg/mL; IC50 (µg/mL), pseudovirus neutralization [32]: > 50 µg/mL
B5	0.055 µg/mL	> 50 µg/mL	0.012 µg/mL	0.013 µg/mL	> 50 µg/mL	> 50 µg/mL	> 50 µg/mL	> 50 µg/mL	0.24 µg/mL	0.105 µg/mL	> 50 µg/mL	> 50 µg/mL	> 50 µg/mL	> 50 µg/mL	0.017 µg/mL	0.01 µg/mL	0.017 µg/mL	0.014 µg/mL	> 50 µg/mL	> 50 µg/mL	IC50 (µg/mL), pseudovirus neutralization [21]: 0.024 µg/mL; IC50 (µg/mL), pseudovirus neutralization [22]: 9.42 µg/mL; IC50 (µg/mL), pseudovirus neutralization [23]: 0.023 µg/mL; IC50 (µg/mL), pseudovirus neutralization [24]: > 50 µg/mL; IC50 (µg/mL), pseudovirus neutralization [25]: 0.029 µg/mL; IC50 (µg/mL), pseudovirus neutralization [26]: > 50 µg/mL; IC50 (µg/mL), pseudovirus neutralization [27]: > 50 µg/mL; IC50 (µg/mL), pseudovirus neutralization [28]: > 50 µg/mL; IC50 (µg/mL), pseudovirus neutralization [29]: > 50 µg/mL; IC50 (µg/mL), pseudovirus neutralization [30]: > 50 µg/mL; IC50 (µg/mL), pseudovirus neutralization [31]: 0.011 µg/mL; IC50 (µg/mL), pseudovirus neutralization [32]: > 50 µg/mL
B6	–	–	–	–	–	–	–	–	–	–	–	–	–	–	–	–	–	–	–	–	Primary Neutralization Index (B cell culture supernatant) [34]: 2.1; Primary Neutralization Index (B cell culture supernatant) [17]: 1.5; Primary Neutralization Index (B cell culture supernatant) [36]: 3.9; Primary Neutralization Index (B cell culture supernatant) [35]: 104
